The supplement of paper PMC10567573
± gives the standard deviation.

Test: protein stability index of a GFP-peptide fusion (GPS, HEK-293T) (PSI 1-6); higher = more stable
[1] = treatment: DMSO, c terminus: a fixed tail appended
[2] = treatment: MLN4924 1 uM, 8 h, c terminus: a fixed tail appended
[3] = treatment: DMSO, c terminus: native
[4] = treatment: MLN4924 1 uM, 8 h, c terminus: native
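Also: 24-mer peptide tiles fused after GFP, lentivirally expressed, FACS-sorted into six equal bins by GFP/DsRed ratio, decoded by Illumina sequencing, PSI is the read-weighted mean bin number.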

| Sequence | protein stability index [1] | protein stability index [2] | protein stability index [3] | protein stability index [4] |
| --- | --- | --- | --- | --- |
| PAVATLCDLFDREIVVTISWAKSI [ESRRA] | 2.65 ± 0.56 | 3.36 ± 0.85 |  |  |
| TDCGKAFLKKSQLTEHKRIHTGKK [ZNF649] | 3.62 ± 0.5 | 3.48 ± 0.42 |  |  |
| LPDNFTLKEDGMETVPWFPKKISD [TPH1] | 4.4 ± 0.19 | 4.3 ± 0.12 |  |  |
| EKWAEGGGHSRERADEPQWSLYPS [CHGB] | 4.28 ± 0.22 | 4.24 ± 0.064 |  |  |
| ISHQGDYAVLAAEPELQVGIDIMK [AASDHPPT] | 3.42 ± 0.21 | 3.52 ± 0.3 |  |  |
| LKTKDGKLPFCAMGVSSVIHPKNP [CPOX] | 3.17 ± 0.34 | 3.17 ± 0.51 |  |  |
| LREENKALREENRMLSKENKILQV [CBY2] | 4.75 ± 0.12 | 4.69 ± 0.15 |  |  |
| EECTDLQKEGEFSTCFTELQRDFL [OAS1] | 4.5 ± 0.32 | 4.52 ± 0.47 |  |  |
| SLGKARTAQVQKDARIGEAEAKRD [FLOT1] | 5.31 ± 0.21 | 5.12 ± 0.36 |  |  |
| FARYPNGVVVHYFCSKEVNPADT [VPS39] |  |  | 2.4 ± 0.22 | 2.27 ± 0.18 |
| KAVKDLVVLLFETALLSSGFSLED [HSP90AB1] | 2.92 ± 0.17 | 2.88 ± 0.16 |  |  |
| TPYLKETLNSIWNVEDHINPKLPN [POMT2] | 3.37 ± 0.28 | 3.45 ± 0.2 |  |  |
| SELERLIVPNSNGVITTTPTPPGQ [JUNB] | 4.65 ± 0.16 | 4.75 ± 0.097 |  |  |
| NSMAPHPARDYVVLRTWRTNLPKG [DLC1] | 2.48 ± 0.59 | 2.64 ± 0.21 |  |  |
| GHQPGTGPGDGPPEIAQNFSAPDP [SMTNL2] | 5.23 ± 0.098 | 5.46 ± 0.15 |  |  |
| MNGEECAEDLRMLDASGEKMNGSH [IKZF1] | 5.15 ± 0.39 | 5.31 ± 0.18 |  |  |
| FFKGIDQDIERGVQSEIFLHESYC [LYSMD4] | 2.58 ± 0.27 | 2.35 ± 0.19 |  |  |
| PESPGGTTTLEGSPSVPCIFCEEH [ZNF277] | 4.82 ± 0.3 | 4.82 ± 0.16 |  |  |
| VFFLFPHSVLVDDDGIKVVKVTFN [TMEM106C] | 2.76 ± 0.45 | 2.65 ± 0.74 |  |  |
| STMTSSVQIYNLSQNIQEDDLQQL [ATL3] | 4.45 ± 0.13 | 4.57 ± 0.31 |  |  |
| MGVGKASASDGSSFVVARYFPAGN [GLIPR2] | 3.13 ± 0.26 | 2.96 ± 0.26 |  |  |
| LTLSAGDLGGSIYANLALSGLIEI [SLC22A15] | 2.77 ± 0.91 | 3.43 ± 0.74 |  |  |
| KNSMENGRPPDPADWAVMDVVNYF [SAMD13] | 3.3 ± 0.26 | 3.28 ± 0.2 |  |  |

| Sequence | protein stability index [1] | protein stability index [2] | protein stability index [3] | protein stability index [4] |
| --- | --- | --- | --- | --- |
| YSLQMKRVIACQKTAHDSNVLHVA [WDR41] | 2.23 ± 0.14 | 2.38 ± 0.32 |  |  |
| SSTSYRRTFGPPPSLSPGAFSYSS [PRPH] | 3 ± 0.28 | 3.21 ± 0.3 |  |  |
| STAHASAQSLAGGSRRTKEEELQC [TPD52L1] | 5.16 ± 0.15 | 5.12 ± 0.23 |  |  |
| FVLLCFAIGALLVCYHYYADWFMS [TMEM40] | 2.16 ± 0.31 | 2.19 ± 0.39 |  |  |
| YLVENNANISIANKYDNTCLMIAA [FEM1B] | 2.38 ± 0.1 | 2.21 ± 0.22 |  |  |
| SDNSWVLAGSESLPVETLGPASRM [PBXIP1] | 3.83 ± 0.15 | 4.02 ± 0.5 |  |  |
| LQGFDQLRLEGLLCDVTLMPGDTD [KLHL13] | 3.61 ± 0.36 | 3.88 ± 0.32 |  |  |
| YAVGGSDGTSPLNTVERYNPQENR [KLHL20] | 4.53 ± 0.33 | 4.79 ± 0.28 |  |  |
| GRAENGERSDLEEDNEREGTENGA [ZC3H15] | 5.57 ± 0.068 | 5.57 ± 0.16 |  |  |
| QKILCSKSENARLVVQIDNAKLAA [KRT33B] | 3.21 ± 0.27 | 3.33 ± 0.26 |  |  |
| GSRAGASSFSDPFFVVETLCIIWF [KCNA3] | 3.04 ± 0.93 | 2.53 ± 0.75 |  |  |
| DKKVRTIIIRSEVPGIFCAGADLK [AUH] | 2.12 ± 0.27 | 2.11 ± 0.38 |  |  |
| LVTLPVSFAQLKNLKWLDLKDNPL [LRRC59] | 2.29 ± 0.082 | 2.31 ± 0.23 |  |  |
| KLEERFMTLAANHELMLRFKDEYK [CCDC89] | 2.99 ± 0.28 | 2.99 ± 0.43 |  |  |
| PQTVGVGRARFTTYEVRMRTNLPI [SNX12] | 2.61 ± 0.22 | 2.6 ± 0.34 |  |  |
| SDNSGQVSPPESPTVTTSWQSESL [BCL2L13] | 5.13 ± 0.2 | 5.02 ± 0.23 |  |  |
| KKPPVTFAEKGELRKSIFSESRKP [TRIM29] | 4.13 ± 0.23 | 4.19 ± 0.19 |  |  |
| SHLSNGLDPVAETAIRQLTEPSGR [C2CD2L] | 4.34 ± 0.31 | 4.58 ± 0.3 |  |  |
| SPEWDTVTPEAKDLINKMLTINPA [CAMK2D] | 4.24 ± 0.42 | 4.54 ± 0.12 |  |  |
| SLEMDSDEDDSEELEEDDGHGAEQ [EHMT1] | 5.45 ± 0.27 | 5.62 ± 0.38 |  |  |
| PCPEDASTPRPPEASSSPPEGSQD [TLE6] | 5.52 ± 0.16 | 5.53 ± 0.17 |  |  |
| LQSAAGKDAAKQIAWIKDKLLHIY [PDS5B] | 2.59 ± 0.39 | 3.09 ± 0.61 |  |  |
| MGESSEDIDQMFSTLLGEMDLLTQ [APBB1IP] | 4.25 ± 0.11 | 4.08 ± 0.32 |  |  |

| Sequence | protein stability index [1] | protein stability index [2] | protein stability index [3] | protein stability index [4] |
| --- | --- | --- | --- | --- |
| HNLVVACEIQVRTLASAGGPDNLV [ADD1] | 2.51 ± 0.51 | 2.38 ± 0.52 |  |  |
| TGEASENGLEDIDRILERIEDSTG [TCF25] | 5.47 ± 0.074 | 5.46 ± 0.29 |  |  |
| TEALILQLFSQIGPCKNCKMIMDT [TIA1] | 2.75 ± 0.37 | 2.53 ± 0.41 |  |  |
| NQLSQAELDELASKAPVLTYGQPK [EFHC1] | 4.78 ± 0.11 | 4.79 ± 0.072 |  |  |
| GTLTPRMTTDFDLSLDNSPLLQSI [TRIM9] | 3.43 ± 0.28 | 3.48 ± 0.36 |  |  |
| QSYKDLCERHEKGVLHKHQRALHK [SNX8] | 3.95 ± 0.2 | 3.92 ± 0.37 |  |  |
| PEEFSLLKLQTKDGHRPEWTFYPR [SPATS1] | 2.76 ± 0.32 | 2.87 ± 0.49 |  |  |
| NPVYYGPSDFFIGAVIEVFGHRFI [EFHC1] | 3.04 ± 0.7 | 2.44 ± 0.79 |  |  |
| PGQEKGSALEGRADTTTGSAAGPP [EHMT1] | 5.39 ± 0.22 | 5.48 ± 0.17 |  |  |
| LRNCKTYQARKPLWFYNTSLKFFL [RHOBTB3] | 2.68 ± 0.55 | 2.84 ± 0.87 |  |  |
| AFHGLSLGLSLTNGLALGPDLNIL [PSD2] | 2.57 ± 0.56 | 2.54 ± 0.5 |  |  |
| VAWNGPRMGDADYLAAWHRLVLPI [HDAC6] | 2.52 ± 0.52 | 2.26 ± 0.25 |  |  |
| KFIKPWESPDEMELDELLKEISRK [PTPRD] | 2.32 ± 0.41 | 2.76 ± 0.38 |  |  |
| LPILGHRDYKIQASRTWCFYNTED [PTGFR] | 2.41 ± 0.31 | 2.53 ± 0.33 |  |  |
| AEGRVVGRKDITSILRAPAYPLEL [MOSPD3] | 3.27 ± 0.19 | 3.33 ± 0.18 |  |  |
| AHGADPTHRLKDGSTMLIEAAKGG [ANKRD17] | 4.7 ± 0.31 | 4.91 ± 0.16 |  |  |
| PGGGGSPGACPALGTKSCSSSCAV [RTN3] | 3.73 ± 0.42 | 4.07 ± 0.22 |  |  |
| LDRLKVLMQVHASRSNNMGIVGGF [SLC25A25] | 2.25 ± 0.7 | 2.1 ± 0.36 |  |  |
| YFISTVKRSWTSAQNACSEHGATL [CD69] | 2.09 ± 0.49 | 2.07 ± 0.3 |  |  |
| KDVRRHLVVHTGCKDFLCQFCAQR [PLAGL1] | 3.44 ± 0.08 | 3.55 ± 0.21 |  |  |
| NKKHIHSRSTLECAYRTHLVAGIG [SMG5] | 2.37 ± 0.29 | 2.39 ± 0.19 |  |  |
| GEVEEEADSCFGDDEDDSGTEES [CDC34] |  |  | 5.25 ± 0.37 | 5.29 ± 0.15 |
| FRDPIWSTWALYGRAVDQDKVLRF [MYORG] | 2.12 ± 0.39 | 2.11 ± 0.15 |  |  |

| Sequence | protein stability index [1] | protein stability index [2] | protein stability index [3] | protein stability index [4] |
| --- | --- | --- | --- | --- |
| LDKLRNEWASHTAALTNKHSQELT [SASS6] | 3.85 ± 0.33 | 3.83 ± 0.3 |  |  |
| PYKCPECGKSFSRSSHLVIHERTH [ZNF263] | 3.23 ± 0.54 | 3.28 ± 0.64 |  |  |
| CLGSLASKLSRKYVKAKKSIDKDE [FAN1] | 2.7 ± 0.16 | 2.94 ± 0.4 |  |  |
| RAKCRNMEHALREKAKAFWAMRRS [TRIM35] | 2.09 ± 0.36 | 2.3 ± 0.34 |  |  |
| GLGVLRALGSRGWEPFDWGRLLEA [FANCE] | 2.88 ± 0.2 | 2.47 ± 0.042 |  |  |
| RYQKYGYIGTHEYPHFSHRPSTLQ [OAS1] | 2.18 ± 0.14 | 2.45 ± 0.15 |  |  |
| AQLQALRQKEVDFCISLLRERFME [INTS3] | 2.61 ± 0.27 | 2.58 ± 0.59 |  |  |
| MIRKGGDQTSLLVVDKETDNMYRL [PDZK1] |  | 3.17 ± 0.25 |  |  |
| RNDKIKHVQNQVDEVIDVMQENIT [VAMP4] | 4.51 ± 0.33 | 4.4 ± 0.98 |  |  |
| KNHEEEMKEFSNQVVGQVNVEMDA [KRT13] | 5.54 ± 0.079 | 5.44 ± 0.31 |  |  |
| ELHQVAERVEALGQFVMKTRRTLK [GNB5] | 2.87 ± 0.12 | 3.1 ± 0.3 |  |  |
| HELTAKYLNYYQGMLDVADESLTD [P3H4] | 4.01 ± 0.3 | 3.89 ± 0.48 |  |  |
| QASPYHPGSCGAGAPSPGSSDVST [ELF3] | 4.57 ± 0.16 | 4.52 ± 0.43 |  |  |
| NQGFLKVERYHNLCQKQVKAQLPR [FBXO28] | 2.76 ± 0.47 | 2.64 ± 0.45 |  |  |
| GVIATKQFSRGDFVVEYHGDLIEI [KMT5A] | 2.37 ± 0.31 | 1.68 ± 0.17 |  |  |
| ETYLQNHFAEEERSKYDYLMILRR [TENT5C] | 2.84 ± 0.1 | 3.13 ± 0.23 |  |  |
| PKKKHLDYLIQATNETNVNIPQMA [SNAP91] | 3.67 ± 0.13 | 3.43 ± 0.33 |  |  |
| LRGLCRPLRPLLGFRESDSAKPAS [C6orf223] | 3.31 ± 0.32 | 3.44 ± 0.23 |  |  |
| HSDMAAIVKAMASPESGLEVRDRM [DVL3] | 3.81 ± 0.23 | 3.81 ± 0.03 |  |  |
| LAIDFIDEGRLLLEFDLLIFSFGQ [SOAT2] | 3.35 ± 0.39 | 2.78 ± 0.57 |  |  |
